The chains are these.
B1: Protein lin-28 homolog A (Mus musculus), Q8K3Y3 (parent)
chain: MGSVSNQQFAGGCAKAAEKAPEEAPPDAARAADEPQLLHGAGICKWFNVRMGFGFLSMTARAGVALDPPVDVFVHQSKLHMEGFRSLKEGEAVEFTFKKSAKGLESIRVTGPGGVFCIGSERRPKGKNMQKRRSKGDRCYNCGGLDHHAKECKLPPQPKKCHFCQSINHMVASCPLKAQQGPSSQGKPAYFREEEEEIHSPALLPEAQN
partner: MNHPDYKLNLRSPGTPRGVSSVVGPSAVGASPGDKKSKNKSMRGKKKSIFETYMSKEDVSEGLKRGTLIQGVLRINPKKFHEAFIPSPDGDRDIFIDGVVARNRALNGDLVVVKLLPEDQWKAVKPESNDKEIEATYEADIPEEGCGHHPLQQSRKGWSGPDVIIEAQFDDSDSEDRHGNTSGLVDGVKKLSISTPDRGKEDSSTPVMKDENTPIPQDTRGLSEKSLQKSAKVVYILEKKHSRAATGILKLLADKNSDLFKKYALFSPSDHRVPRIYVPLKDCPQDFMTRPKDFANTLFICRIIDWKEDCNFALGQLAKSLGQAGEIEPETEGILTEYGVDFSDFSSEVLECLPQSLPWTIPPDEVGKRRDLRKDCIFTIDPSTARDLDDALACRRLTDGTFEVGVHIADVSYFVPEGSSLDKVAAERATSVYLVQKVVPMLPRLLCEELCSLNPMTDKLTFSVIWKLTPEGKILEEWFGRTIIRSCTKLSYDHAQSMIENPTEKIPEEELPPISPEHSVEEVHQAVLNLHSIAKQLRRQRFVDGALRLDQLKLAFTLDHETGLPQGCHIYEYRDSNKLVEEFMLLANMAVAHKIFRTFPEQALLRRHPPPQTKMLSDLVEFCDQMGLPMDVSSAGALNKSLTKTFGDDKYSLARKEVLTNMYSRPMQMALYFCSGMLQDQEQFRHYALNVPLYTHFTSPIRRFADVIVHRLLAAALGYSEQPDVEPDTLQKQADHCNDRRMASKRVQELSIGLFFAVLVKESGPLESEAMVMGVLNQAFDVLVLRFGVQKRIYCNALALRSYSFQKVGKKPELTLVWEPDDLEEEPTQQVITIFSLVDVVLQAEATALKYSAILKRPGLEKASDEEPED

Here are results for one variant from IntAct's records for PubMed 23594738.

This test covers variants of B1. The following applies: with di3l2_mouse Dis3l2, Q8CI75.
With MGSVSNQQFAGGCAKAAEKAPEEAPPDAARAADEPQLLHGAGICKAFNVRMGFGFLSMTARAGVALDPPVDVFVHQSKLHMEGFRSLKEGEAVEFTFKKSAKGLESIRVTGPGGVFCIGSERRPKGKNMQKRRSKGDRCYNCGGLDHHAKECKLPPQPKKCHFCQSINHMVASCPLKAQQGPSSQGKPAYFREEEEEIHSPALLPEAQN [W46A], the “effect of a mutation on the interaction” value is reported as “decreasing interaction strength”.
